# Laboratory results taken from article PMC1669725.
# B1: HIV LTR Sp1 site 23 bp (dsDNA)
# DNA 1: ACTTTCCAGGGAGGCGTGGCCTG
# DNA 2: CAGGCCACGCCTCCCTGGAAAGT
# Target: Sp1 zinc-finger DNA-binding domain (truncated Sp1) (UniProt P08047 619-774)
# Experiment: fluorescence correlation spectroscopy
# Chain of Sp1 zinc-finger DNA-binding domain (truncated Sp1) (P08047 619-774): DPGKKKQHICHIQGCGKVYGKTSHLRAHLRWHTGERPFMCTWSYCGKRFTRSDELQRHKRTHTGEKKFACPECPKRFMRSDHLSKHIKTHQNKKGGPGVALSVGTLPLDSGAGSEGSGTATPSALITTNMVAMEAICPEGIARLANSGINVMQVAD
binder,measurement,value
B1,Kd,32 ± 2 nM
